# ± gives the uncertainty stated by the source.
# B1: Triacylglycerol hydrolase DDHD2, residues 389 to 447; numbered along this chain, O94830 (parent)
# chain: TLEEDLKKLQLSEFFDIFEKEKVDKEALALCTDRDLQEIGIPLGPRKKILNYFSTRKNS
# Variants of: B1
# Assay: abundance fitness (aPCA) (normalised: wild type 0, dead -1); higher = more abundant; growth selection in yeast, the domain comes from the species named
# Settings: Homo sapiens
row,Variant,abundance fitness
1,L30I,0.513 ± 0.1
2,R34V,0.072 ± 0.07
3,R34K,-0.087 ± 0.095
4,R34L,-0.001 ± 0.063
5,R34P,-0.266 ± 0.1
6,R34M,0.32 ± 0.092
7,P45L,-0.496 ± 0.072
8,P45V,0.411 ± 0.063
9,P45W,-1.26 ± 0.23
10,P45F,-0.144 ± 0.072
11,P45Y,-0.426 ± 0.084
12,C31R,-0.188 ± 0.071
13,C31N,-0.304 ± 0.11
14,C31I,0.035 ± 0.1
15,C31F,0.605 ± 0.072
16,C31G,-0.294 ± 0.059
17,C31T,0.145 ± 0.1
18,T55F,-0.482 ± 0.16
19,T55E,0.214 ± 0.081
20,T55K,0.178 ± 0.096
21,T55Y,-0.159 ± 0.1
22,T55V,-0.152 ± 0.063
23,L2W,-0.52 ± 0.082
24,L2D,-0.468 ± 0.13

row,Variant,abundance fitness
1,L2G,-0.607 ± 0.071
2,L2H,-0.818 ± 0.17
3,L2P,-0.748 ± 0.092
4,Y52G,-0.34 ± 0.067
5,Y52Q,0.123 ± 0.12
6,Y52E,-0.075 ± 0.084
7,Y52A,-0.08 ± 0.077
8,Y52L,-0.354 ± 0.073
9,Y52D,-0.088 ± 0.1
10,Y52S,-0.15 ± 0.072
11,Y52T,-0.172 ± 0.11
12,I41H,-0.31 ± 0.14
13,I41Q,-0.144 ± 0.1
14,I41D,-0.384 ± 0.15
15,I41W,-0.831 ± 0.11
16,I41Y,-0.689 ± 0.2
17,K25R,-0.053 ± 0.06
18,K25D,-0.027 ± 0.1
19,K25W,-0.329 ± 0.086
20,K25S,-0.088 ± 0.075
21,K25L,0.03 ± 0.072
22,K48L,-0.007 ± 0.075
23,K48E,0.036 ± 0.1
24,K48S,-0.075 ± 0.069

row,Variant,abundance fitness
1,K48A,0.106 ± 0.068
2,K48N,-0.344 ± 0.11
3,K48T,0.374 ± 0.078
4,K48F,-0.457 ± 0.13
5,K48I,0.104 ± 0.12
6,D33K,-0.489 ± 0.1
7,D33S,-0.235 ± 0.07
8,D33Q,-0.446 ± 0.11
9,D33N,-0.367 ± 0.1
10,D33P,-0.659 ± 0.11
11,P42S,-0.493 ± 0.081
12,P42H,-1.06 ± 0.33
13,P42E,-0.213 ± 0.072
14,P42Q,-0.393 ± 0.099
15,P42L,-0.958 ± 0.084
16,P42A,-0.518 ± 0.081
17,P42V,-1.01 ± 0.098
18,L50F,-0.008 ± 0.15
19,L50C,-0.215 ± 0.13
20,L50T,-0.209 ± 0.092
21,L50I,0.096 ± 0.11
22,L50G,-0.291 ± 0.061
23,F15T,0.112 ± 0.07
24,F15E,-0.029 ± 0.08

row,Variant,abundance fitness
1,F15P,-0.537 ± 0.093
2,F15I,-0.513 ± 0.23
3,L28K,-0.467 ± 0.1
4,L28N,-0.404 ± 0.11
5,L28R,-0.498 ± 0.074
6,L28C,-0.325 ± 0.1
7,L28Q,-0.365 ± 0.12
8,L28A,-0.352 ± 0.083
9,L28S,-0.215 ± 0.078
10,L28T,-0.342 ± 0.1
11,L28I,-0.368 ± 0.11
12,L28Y,-0.634 ± 0.15
13,L6S,-0.767 ± 0.13
14,L6A,-1.1 ± 0.11
15,L6K,-0.335 ± 0.15
16,L6C,-0.888 ± 0.27
17,E4D,-0.205 ± 0.1
18,E4F,-0.264 ± 0.1
19,E4H,-0.33 ± 0.098
20,E38T,-0.051 ± 0.083
21,E38I,-0.294 ± 0.11
22,E38C,-0.129 ± 0.08
23,E38D,0.067 ± 0.077
24,E13Y,-0.012 ± 0.22

row,Variant,abundance fitness
1,E13T,-0.538 ± 0.15
2,E13A,-0.036 ± 0.089
3,E13P,-0.432 ± 0.16
4,E13Q,-0.215 ± 0.15
5,F18V,-0.45 ± 0.083
6,F18D,-0.399 ± 0.1
7,F18W,-0.535 ± 0.11
8,F18I,-0.16 ± 0.16
9,F18A,-0.134 ± 0.074
10,E21R,0.508 ± 0.06
11,E21K,0.809 ± 0.093
12,E21C,0.257 ± 0.098
13,E21T,0.212 ± 0.084
14,E21W,0.299 ± 0.072
15,E21V,0.029 ± 0.075
16,E21M,0.86 ± 0.084
17,G40A,-0.65 ± 0.085
18,G40W,-1.23 ± 0.17
19,G40I,-0.839 ± 0.17
20,G40Y,-1.2 ± 0.27
21,G40D,-0.572 ± 0.11
22,G40V,-0.689 ± 0.078
23,G40Q,-0.216 ± 0.12
24,S12V,-0.099 ± 0.052

row,Variant,abundance fitness
1,S12E,0.016 ± 0.066
2,S12M,-0.119 ± 0.072
3,S12W,-0.137 ± 0.075
4,A27T,0.057 ± 0.091
5,A27C,0.429 ± 0.094
6,A27Q,0.475 ± 0.09
7,A27D,0.437 ± 0.11
8,A27H,0.357 ± 0.14
9,A27V,0.047 ± 0.074
10,A27P,-0.355 ± 0.13
11,D35G,-0.182 ± 0.074
12,D35M,0.215 ± 0.083
13,D35V,-0.818 ± 0.087
14,D35L,-0.762 ± 0.08
15,D35T,-0.264 ± 0.087
16,D35Q,0.271 ± 0.088
17,D35E,0.197 ± 0.073
18,D35F,-0.311 ± 0.12
19,D35P,-0.937 ± 0.14
20,V23R,-0.311 ± 0.072
21,V23W,0.593 ± 0.071
22,V23F,0.437 ± 0.11
23,V23I,0.417 ± 0.097
24,V23C,-0.47 ± 0.14

row,Variant,abundance fitness
1,V23A,-0.339 ± 0.083
2,V23Q,-0.331 ± 0.1
3,K7M,-0.424 ± 0.18
4,K7N,-0.153 ± 0.22
5,K7T,-0.196 ± 0.099
6,K7G,-0.056 ± 0.089
7,K7L,-0.203 ± 0.074
8,R46Q,-0.243 ± 0.12
9,R46G,-0.107 ± 0.055
10,R46V,-0.52 ± 0.068
11,R46T,-0.224 ± 0.095
12,R46L,-0.744 ± 0.088
13,R46N,-0.152 ± 0.11
14,R46I,-0.163 ± 0.1
15,D5P,-0.904 ± 0.092
16,D5T,0.15 ± 0.069
17,D5R,-0.568 ± 0.061
18,D5G,-0.536 ± 0.06
19,D5S,-0.016 ± 0.062
20,D5E,0.123 ± 0.058
21,D5Y,-0.614 ± 0.12
22,D5M,-0.194 ± 0.076
23,D5I,-0.144 ± 0.11

# — the Human Domainome abundance scans (Beltran et al. 2025)
